Broadly, the Kd is the concentration at which binding is half-saturated.

Consider 2 molecules from patent US20090186842, “Methods and compositions for inhibition of viral replication” (published 2009).

In data set [1] the target is T1, GST-TIAR RRM1 (UniProt Q01085 Q01085:9-85).
T1 sequence: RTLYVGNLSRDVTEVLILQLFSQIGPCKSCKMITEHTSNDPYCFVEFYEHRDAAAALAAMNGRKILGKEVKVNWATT
Description: EMSA; 200 nM protein. To be noted: tags: GST fusion; label: 32P; stem-loop. On the technique in general: In EMSA bound probe runs differently from free probe, usually more slowly.

For data set [2], the target named is T2, GST-TIAR RRM3 (UniProt Q01085 Q01085:205-277).
T2 sequence: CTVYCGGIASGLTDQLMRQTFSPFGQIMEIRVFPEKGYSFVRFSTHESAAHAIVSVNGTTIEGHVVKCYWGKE
The experiment in a line: EMSA; 200 nM protein. The conditions noted are these: tags: GST fusion; label: 32P; stem-loop.

Data set [3] concerns the target T3, GST-TIA-1 RRM1 (UniProt P31483 P31483:7-83).
T3 sequence: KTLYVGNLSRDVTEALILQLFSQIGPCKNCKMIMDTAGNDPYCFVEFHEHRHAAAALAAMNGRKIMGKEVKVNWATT
The experiment in a line: EMSA; 500 nM protein. The conditions noted are these: tags: GST fusion; label: 32P; stem-loop.

For data set [4], the target named is T4, GST-TIA-1 RRM3 (UniProt P31483 P31483:214-286).
T4 sequence: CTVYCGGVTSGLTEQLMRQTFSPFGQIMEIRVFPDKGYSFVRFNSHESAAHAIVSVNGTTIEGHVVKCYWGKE
The experiment in a line: EMSA; 500 nM protein. The conditions noted are these: tags: GST fusion; label: 32P; stem-loop.

The target of data set [5] is T5, GST-TIAR RRM2 (UniProt Q01085 Q01085:97-175).
T5 sequence: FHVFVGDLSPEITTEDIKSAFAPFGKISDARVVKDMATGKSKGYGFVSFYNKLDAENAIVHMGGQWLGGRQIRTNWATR
The experiment in a line: EMSA; SD 5 nM, n=1.2. To be noted: tags: GST fusion; label: 32P; stem-loop.

The target in data set [6] is T6, GST-TIA-1 RRM2 (UniProt P31483 P31483:106-184).
T6 sequence: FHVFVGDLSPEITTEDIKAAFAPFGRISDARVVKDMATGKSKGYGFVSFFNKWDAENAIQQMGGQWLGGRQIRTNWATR
The experiment in a line: EMSA; SD 15 nM, n=1.1. To be noted: tags: GST fusion; label: 32P; stem-loop.

The target in data set [7] is T7, TIARa (rTIAR) (Mus musculus, UniProt P70318 P70318:1-392).
T7 sequence: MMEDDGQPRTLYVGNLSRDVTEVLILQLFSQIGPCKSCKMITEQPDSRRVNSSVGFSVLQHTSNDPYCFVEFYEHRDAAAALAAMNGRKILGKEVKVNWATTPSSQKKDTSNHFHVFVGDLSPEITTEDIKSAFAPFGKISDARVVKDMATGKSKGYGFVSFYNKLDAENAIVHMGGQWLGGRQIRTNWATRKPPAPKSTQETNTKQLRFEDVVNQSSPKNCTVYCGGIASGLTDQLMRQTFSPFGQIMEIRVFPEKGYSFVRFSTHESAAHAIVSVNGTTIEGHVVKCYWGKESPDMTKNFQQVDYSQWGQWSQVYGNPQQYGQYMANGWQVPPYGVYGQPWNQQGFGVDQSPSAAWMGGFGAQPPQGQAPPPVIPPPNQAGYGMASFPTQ
Description: EMSA; 5-90 nM protein, 0.2 nM RNA, 1 mM MgCl2, 30 mM KCl, RT. The conditions noted are these: tags: C-terminal His6; label: 32P; stem-loop; AU-rich loops L1, L2, L3.

B1: WNV 3'(-)SL RNA with 5' CCC (ssRNA)
RNA: CCCCAGCUCGCACCGUGUUAAUUGUUGUUAAUCCUCACAAACACUACUAAGUUUGUCAGCUCACACAGGCGAACUACU
Consider B1, for which the binding result in data set [1], in data set [2], in data set [3] and in data set [4] was “no binding” throughout. The results for the Kd in data set [5] and in data set [6] were 15 nM and 112 nM, respectively.

B2: WNV3'(-)SL RNA (ssRNA)
RNA: CAGCUCGCACCGUGUUAAUUGUUGUUAAUCCUCACAAACACUACUAAGUUUGUCAGCUCACACAGGCGAACUACU
As for B2, the binding result in data set [7] is given as “binds”.
